Test results as given in the supplement of paper PMC7125110.
± gives the standard error. For some of these results: This sample holds only a part of the variants without activity.

B1: glmS ribozyme (parent)
chain: AUAAAAGCGCCAGAACUACAGAAAUGUAGUUGACGAGGAGGAGGUUUAUCGAAUUUUCGGCGGAUGCCUCCAAA

Tests used:
Details in all cases: with glucosamine-6-phosphate
glucosamine-6-phosphate [1] = variants of: B1; assay: kcat; higher = faster cleavage; RNA array
Procedure, shortened: (§1)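 Barcoded glmS ribozyme variants on sequenced MiSeq chips were transcribed in situ by E. coli RNA polymerase and tracked through a hybridised Cy3 probe at 37 °C. Glucosamine-6-phosphate (40 μM to 10 mM) in HEPES/KCl/Mg(OAc)2 buffer was flowed in, and tiles were imaged over ~14 h. Signals were normalised to baseline and to non-cleaving reference variants; per-tile medians were fit to one- or two-exponential decays to give kobs. kcat and KM came from weighted Michaelis–Menten fits across concentrations.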

glucosamine-6-phosphate [2] = variants of: B1; assay: self-cleavage kobs at 40 uM GlcN6P; higher = faster cleavage; RNA array
Procedure, shortened: as §1

glucosamine-6-phosphate [3] = variants of: B1; assay: self-cleavage kobs at 640 uM GlcN6P; higher = faster cleavage; RNA array
Procedure, shortened: as §1

glucosamine-6-phosphate [4] = variants of: B1; assay: KM; higher = weaker cofactor use; RNA array
Procedure, shortened: as §1

glucosamine-6-phosphate [5] = variants of: B1; assay: self-cleavage kobs at 160 uM GlcN6P; higher = faster cleavage; RNA array
Procedure, shortened: as §1

glucosamine-6-phosphate [6] = variants of: B1; assay: self-cleavage kobs at 2500 uM GlcN6P; higher = faster cleavage; RNA array
Procedure, shortened: as §1

glucosamine-6-phosphate [7] = variants of: B1; assay: self-cleavage kobs at 10000 uM GlcN6P; higher = faster cleavage; RNA array
Procedure, shortened: as §1

Row | Variant | kcat (glucosamine-6-phosphate [1]) [s⁻¹] | self-cleavage kobs at 40 uM GlcN6P (glucosamine-6-phosphate [2]) [s⁻¹] | self-cleavage kobs at 640 uM GlcN6P (glucosamine-6-phosphate [3]) [s⁻¹] | KM (glucosamine-6-phosphate [4]) [µM] | self-cleavage kobs at 160 uM GlcN6P (glucosamine-6-phosphate [5]) [s⁻¹] | self-cleavage kobs at 2500 uM GlcN6P (glucosamine-6-phosphate [6]) [s⁻¹] | self-cleavage kobs at 10000 uM GlcN6P (glucosamine-6-phosphate [7]) [s⁻¹]
1 | G38U A48G | < 1e-05 | < 1e-05 | < 1e-05 | – | – | – | –
2 | G29U U55C | 0.00826 ± 0.0027 | 0.000123 ± 1.8e-05 | 0.00112 ± 0.0002 | 3740 ± 1700 | 0.000198 ± 7.2e-05 | 0.00427 ± 0.0009 | 0.00588 ± 0.00079
3 | G41U U45G | 0.000293 ± 5.4e-05 | – | 0.000129 ± 1.7e-05 | 909 ± 340 | 3.13e-05 ± 1.4e-05 | 0.000339 ± 9.1e-05 | 0.000243 ± 4.4e-05
4 | G13C U31G C70U | 0.000159 ± 3.6e-05 | – | 4.2e-05 ± 1.9e-05 | – | – | 0.000148 ± 3.9e-05 | 0.000131 ± 2.7e-05
5 | U46G C68A | 3.1e-05 ± 2.2e-06 | – | – | – | – | – | 3.1e-05 ± 1.1e-05
6 | G37A U65G | 0.000263 ± 1.3e-05 | – | 4.13e-05 ± 1.5e-05 | 3870 ± 390 | – | 0.000102 ± 1.2e-05 | 0.000191 ± 2.3e-05
7 | G38A U65A | < 1e-05 | – | – | – | – | – | –
8 | A15C U30A A48U | 6.89e-05 ± 1.4e-05 | < 1e-05 | – | – | – | 4.08e-05 ± 1.4e-05 | 5.4e-05 ± 2e-05
9 | U30G U54A | 0.0115 ± 0.0045 | 0.000247 ± 3.2e-05 | 0.00201 ± 0.0004 | – | 0.000384 ± 7.9e-05 | 0.00795 ± 0.0017 | 0.00853 ± 0.0011
10 | G32U C58U | 0.000916 ± 0.0003 | – | 0.000118 ± 1.5e-05 | – | 6.06e-05 ± 1.7e-05 | 0.000245 ± 3e-05 | 0.000655 ± 6.4e-05
11 | A48G C68A | 1.35e-05 ± 5e-06 | < 1e-05 | – | – | – | – | –
12 | A12G A15C | 0.000514 ± 0.00013 | – | – | – | – | 7.79e-05 ± 1e-05 | 0.000205 ± 2.2e-05
13 | G29U C67U | 0.000984 ± 0.0002 | 4.55e-05 ± 8.7e-06 | 0.000384 ± 5.4e-05 | 1050 ± 320 | 0.000126 ± 1.3e-05 | 0.000575 ± 8.5e-05 | 0.0012 ± 0.00018
14 | G32U U45G | 0.000699 ± 0.00027 | – | – | – | – | 6.97e-05 ± 1.1e-05 | 0.000203 ± 2.1e-05
15 | A14U A42G | 0.0156 ± 0.0054 | 0.000273 ± 3.1e-05 | 0.00347 ± 0.00055 | 2710 ± 1300 | 0.00064 ± 0.00015 | 0.00517 ± 0.001 | 0.0147 ± 0.0018
16 | U69G C70A | 4.72e-05 ± 1.5e-05 | – | 5.13e-05 ± 9.1e-06 | – | 4.55e-05 ± 1.3e-05 | 7.85e-05 ± 1.2e-05 | –
17 | A14U C67A | 0.00153 ± 0.00048 | 6.24e-05 ± 7.4e-06 | 0.000406 ± 5.4e-05 | 1240 ± 540 | 0.000172 ± 2.5e-05 | 0.00137 ± 0.00031 | 0.00155 ± 0.00023
